Measurements as given in the Immune Epitope Database (IEDB).

Tests used:
[1] = target: HLA-A*01:01; assay: IEDB peptide-MHC binding, purified MHC/direct/fluorescence; filed as Kd, often an IC50 or EC50 that approximates it; ≥ and ≤ were set here for values at or beyond the usual limits of such assays; details: source organism: Salmonella enterica subsp. enterica serovar Typhi
[2] = target: HLA-A*69:01; assay: as above; details: source organism: Salmonella enterica subsp. enterica serovar Typhi
[3] = target: HLA-B*08:01; assay: as above; details: source organism: Salmonella enterica subsp. enterica serovar Typhi
[4] = target: HLA-A*03:01; assay: as above; details: source organism: Salmonella enterica subsp. enterica serovar Typhi
[5] = target: HLA-B*58:01; assay: as above; details: source organism: Salmonella enterica subsp. enterica serovar Typhi
[6] = target: HLA-A*31:01; assay: as above; details: source organism: Salmonella enterica subsp. enterica serovar Typhi
[7] = target: HLA-A*02:01; assay: as above; details: source organism: Salmonella enterica subsp. enterica serovar Typhi
[8] = target: HLA-B*44:02; assay: as above; details: source organism: Salmonella enterica subsp. enterica serovar Typhi
[9] = target: HLA-A*11:01; assay: as above; details: source organism: Salmonella enterica subsp. enterica serovar Typhi
[10] = target: HLA-B*27:05; assay: as above; details: source organism: Salmonella enterica subsp. enterica serovar Typhi
[11] = target: HLA-A*26:01; assay: as above; details: source organism: Salmonella enterica subsp. enterica serovar Typhi
[12] = target: HLA-B*15:01; assay: as above; details: source organism: Salmonella enterica subsp. enterica serovar Typhi
[13] = target: HLA-B*07:02; assay: as above; details: source organism: Salmonella enterica subsp. enterica serovar Typhi
[14] = target: HLA-B*40:01; assay: as above
[15] = target: HLA-A*30:02; assay: IEDB peptide-MHC binding, purified MHC/competitive/radioactivity; filed as Kd, often an IC50 or EC50 that approximates it; ≥ and ≤ were set here for values at or beyond the usual limits of such assays
[16] = target: HLA-B*15:01; assay: as above
[17] = target: HLA-A*24:02; assay: IEDB peptide-MHC binding, purified MHC/competitive/fluorescence; ≥ and ≤ were set here for values at or beyond the usual limits of such assays
[18] = target: HLA-A*24:03; assay: IEDB peptide-MHC binding, purified MHC/direct/fluorescence; filed as Kd, often an IC50 or EC50 that approximates it; ≥ and ≤ were set here for values at or beyond the usual limits of such assays; details: source organism: Burkholderia mallei
[19] = target: HLA-A*01:01; assay: IEDB peptide-MHC binding, purified MHC/competitive/radioactivity; filed as Kd, often an IC50 or EC50 that approximates it; ≥ and ≤ were set here for values at or beyond the usual limits of such assays
[20] = target: HLA-A*03:01; assay: as above; details: source organism: Dengue virus 2 Jamaica/1409/1983
[21] = target: HLA-A*11:01; assay: as above; details: source organism: Dengue virus 2 Jamaica/1409/1983
[22] = target: HLA-A*26:01; assay: as above; details: source organism: Dengue virus 2 Jamaica/1409/1983
[23] = target: HLA-A*02:01; assay: IEDB peptide-MHC binding, purified MHC/competitive/fluorescence; ≥ and ≤ were set here for values at or beyond the usual limits of such assays; details: source organism: Variola virus
[24] = target: HLA-B*18:01; assay: IEDB peptide-MHC binding, purified MHC/direct/fluorescence; filed as Kd, often an IC50 or EC50 that approximates it; ≥ and ≤ were set here for values at or beyond the usual limits of such assays; details: source organism: Giardia lamblia ATCC 50803
[25] = source organism: Dengue virus 2 Peru/IQT2913/1996
[26] = source organism: Zaire ebolavirus
[27] = source organism: Dengue virus 4 Philippines/H241/1956
[28] = source organism: Dengue virus 2 Jamaica/1409/1983
[29] = source organism: Dengue virus 3 Martinique/1243/1999
[30] = source organism: Vaccinia virus WR

## REILFHNTM
[1]
  Kd: ≥ 20000 nM
[2]
  Kd: ≥ 20000 nM
[3]
  Kd: 1310 nM
[4]
  Kd: ≥ 20000 nM
[5]
  Kd: ≥ 20000 nM
[6]
  Kd: ≥ 20000 nM
[7]
  Kd: ≥ 20000 nM
[8]
  Kd: ≥ 20000 nM
[9]
  Kd: ≥ 20000 nM
[10]
  Kd: ≥ 20000 nM
[11]
  Kd: ≥ 20000 nM
[12]
  Kd: 180 nM
[13]
  Kd: ≥ 20000 nM
[14]; source organism: Salmonella enterica subsp. enterica serovar Typhi
  Kd: 5.66 nM

## RIKQKGILGY
[15]; [25]
  Kd: 1440 nM
[16]; [25]
  Kd: 152 nM

## RWGGTCHIL
[17]; [26]
  IC50: 55.6 nM

## RYPAIAGGI
[18]
  Kd: 3.3 nM

## SFLLMLCLH
[17]; [26]
  IC50: ≥ 266000 nM

## SQHNYRQGY
[15]; [27]
  Kd: 23.5 nM
[16]; [27]
  Kd: 3.47 nM

## TIMAAILAY
[19]; [28]
  Kd: ≥ 26600 nM
[20]
  Kd: 28.8 nM
[15]; [28]
  Kd: 117 nM
[21]
  Kd: 164 nM
[22]
  Kd: 156 nM
[16]; [28]
  Kd: 73.3 nM

## TLITGNMSF
[16]; [28]
  Kd: 91.1 nM

## TYVQLESRF
[17]; [26]
  IC50: 56400 nM

## VFLPNPAFI
[17]; source organism: Variola virus
  IC50: 18500 nM
[23]
  IC50: 715 nM

## VSKKEGGAMY
[19]; [28]
  Kd: 19900 nM
[15]; [28]
  Kd: ≥ 69700 nM
[16]; [28]
  Kd: 84.8 nM

## VTRGAVLTY
[19]; [29]
  Kd: 3110 nM
[15]; [29]
  Kd: ≥ 76900 nM
[16]; [29]
  Kd: 30 nM

## WEPPERHIL
[24]
  Kd: ≤ 1 nM
[14]; source organism: Giardia lamblia ATCC 50803
  Kd: ≥ 20000 nM

## YACKQILHG
[16]; [30]
  Kd: 2270 nM

## YMATTILEM
[16]; [30]
  Kd: 2.17 nM
